The assay has as its target T1, human G-protein coupled receptor 1 (GPR1), FLAG-BRIL fusion construct for cryo-EM (human, UniProt P46091 1-355).
T1 sequence: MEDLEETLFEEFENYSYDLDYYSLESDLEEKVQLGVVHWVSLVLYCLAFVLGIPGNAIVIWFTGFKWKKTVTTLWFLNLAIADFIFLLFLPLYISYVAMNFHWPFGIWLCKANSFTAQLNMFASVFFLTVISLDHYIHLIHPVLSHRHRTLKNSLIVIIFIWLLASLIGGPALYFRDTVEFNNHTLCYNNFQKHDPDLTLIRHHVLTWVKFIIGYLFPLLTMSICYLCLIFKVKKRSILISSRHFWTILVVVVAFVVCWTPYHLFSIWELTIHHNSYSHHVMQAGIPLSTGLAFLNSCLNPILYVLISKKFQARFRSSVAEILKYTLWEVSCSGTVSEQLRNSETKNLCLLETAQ
In words: cryo-EM structure.

B1: full-length chemerin (21-157) (ligand)
chain: ELTEAQRRGLQVALEEFHKHPPVQWAFQETSVESAVDTPFPAGIFVRLEFKLQQTSCRKRDWKKPECKVRPNGRKRKCLACIKLGSEDKVLGRLVHCPIETQVLREAEEHQETQCLRVQRAGEDPHSFYFPGQFAFS
Take B1: the binding result is on record as “binds”.
